For assay [1], the target named is KIR3DL2 on fresh Sezary Syndrome cells of patients (human) (UniProt P43630). Nature of the assay: flow cytometry of whole blood of a Sezary Syndrome patient, antibody + GaM-PE against CD4; upper gate (CD4+ cells). On the technique in general: In flow cytometry, cells or beads pass a laser one at a time.
Assay [2] has as its target NK cells, including normal KIR3DL2+ NK cells (Homo sapiens) (UniProt P43630). Nature of the assay: flow cytometry of whole blood of a Sezary Syndrome patient, antibody + GaM-PE against CD4; lower gate (CD4-negative NK cells).

Sequence of KIR3DL2 on fresh Sezary Syndrome cells of patients (human) (P43630 22-455): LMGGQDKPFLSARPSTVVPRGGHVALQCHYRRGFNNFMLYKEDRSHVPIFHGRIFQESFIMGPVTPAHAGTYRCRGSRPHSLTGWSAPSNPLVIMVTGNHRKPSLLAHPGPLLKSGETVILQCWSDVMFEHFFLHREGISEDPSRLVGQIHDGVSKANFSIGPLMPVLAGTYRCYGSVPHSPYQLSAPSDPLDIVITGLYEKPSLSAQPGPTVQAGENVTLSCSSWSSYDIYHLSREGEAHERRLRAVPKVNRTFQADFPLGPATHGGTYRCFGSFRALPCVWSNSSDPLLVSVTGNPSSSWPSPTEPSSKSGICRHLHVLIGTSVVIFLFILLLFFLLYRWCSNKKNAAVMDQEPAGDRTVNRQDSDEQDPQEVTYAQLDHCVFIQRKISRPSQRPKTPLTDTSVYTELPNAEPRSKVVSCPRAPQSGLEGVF
Sequence of NK cells, including normal KIR3DL2+ NK cells (Homo sapiens) (P43630 22-455 limits assumed): as the sequence (P43630 22-455) above

Regarding Isotype Control (antibody), the % of cells in gate CD4 GaM PE+ in assay [1] was 0.1%. Also, in assay [2], the % of cells in gate NK GaM PE+ was 0.9%.
